# Reference: the DeepSol protein solubility set
# Experiment: soluble on expression in E. coli; label from the status in PepcDB or PDB records
row,Sequence,soluble on expression in E. coli
1,MSLTLKLLAEVAGEKVSRFDNKGDIWYDLISAVHKSIRGSNPDAALYWSARMIAAGCDPLYIARRLLAIASEDVGNADPRAMQVALSAWDCFTRVGPAEGERAIAQAIVYLACAPKSNAVYTAWKQALSDAHNLPEFEVPFHLRNAPTGLMKDLGYGEGYRYAHDEPGAYAAGEQYLPAEIDDRKYYQPTNRGLESKIAEKLDYLANLDANSPQKRYEEGHHHHHH,not soluble
2,QSTSNKTLDTLIVTGTRISDRTAAESSSPIDIISQESLEATGTTELATALSRMVPSLNFPRPAVSDGNDAVRPAQLRGLSPDQVLVLVNGKRYHTTALVNLNEIQGRGSAPADLNTIPIAAIERIEVLRDGASAQYGSDAIAGVINIVLKGAGKGGSITGHYGEYKVKDGKQYELSGDTGLSFAGTGKVHFAAQGGHEDQTNRAVPYNDGIIRQRYGDPKINQGAFSYNGSYSPTEGVTFYSFGMVSRRKVLSNGFYRWADDARNRPEIYPEGFLPQIYNVANDTSWVSGMKASTAWGLNIDLSYNYGNNQLTFDVRNSLNNSLGLSSPTAFYAGGLEITQHVLNADFNKSVDWGHLAYPLNLAFGVEWRGEIFNEYQGEEASYINGGVRSSAGTLLPGAQVFSGFKPSDSGGFDRNSHSMYIDLEGNLTEKFSAGVAGRYEHYSDFSNTR,not soluble
3,FGLETVSENELAHSEEELRIILSESYKSGEINQSEFKYVNKIFEFDDRLAKEIMIPRTEIVSLPHDIKISEMMDIIQIEKYTRYPVEEGDKDNIIGVINIKEVLTACISGEVSVDSTISQFVNPIIHVIESAPIQDLLVKMQKERVHMAILSDEYGGTAGLVTVEDIIEEIVGEIR,soluble
4,MSLQEIIGASLVFLCNEKCEVLEDYGVVFDEKIVEIGDYQSLTLKYPHLKAQFFENSVLLPAFINAHTHFEFSNNKASFDYGSFSGWLGSVLNNGGAILENCQGAIQNAISTQLKSGVGSVGAISNHLIEVNLLKESPLNAVVFLEFLGSSYSLEKLKAFEAKFKELKDLEDKKLKAALAVHAPYSVQKDMALSVIQLAKDSQSLLSTHFLESLEELEWVENSKGWFENFYQHFLKESHFKSLYKGANDYIDMFKDTHTLFVHNQFASLEALKRIKSQVKNAFLITCPFSNRLLSGQALDLERTKEAGLSVSVATDGLSSNISLSLLDELRAFLLTHNMPLLELAKIALLGATRHGAKALALNNGEIEANKRADLSVFGFNEKFTKEQAILQFLLHAKEVECLFLGGKRVIEGHHHHHH,soluble
5,MKKIIFTFLILGNVYNFAAQKTLRTVEKCRVTSKGTTKDGKRFANCISLQSGKTFNFTGLVDQTYYKFSKGTIFKVYFYGNGNRNLTLETFDYIR,not soluble
6,MNLFFDTELGKQQNKATHKIRVMSEAWLEKNGYCPCCGSKPMQRFANNKPVADLFCPNCHEQYELKSKNQKTIGNSVPDGAYHTMLERIRSDTNPNFFFLAYKKADYSIRQLVLVPKHFITPDMIIPRNKGIKNRPNHIMCSINLAPLPESGKIFLIDNSRIIEPETVLKKWQSNLFLRNQNAERKGWLLAVMKCIDQLPEEFTLSQMYEFENKLSIQFPQNNHIRDKIRQQLQILRDQNTIEFIGRGLYKKS,not soluble
7,SLSTLKILLCTDNHLGYKENNSIQKKDSFNSFEEILFIAKKLNVDMILNSGDLFHKNKVSEYTLFKSMYIIRKAGKKLIPFYTIHGNHDYPYSYEYISPLDILNISNLINYIGKNNLNNIVVKPILLNKYKSKISIYAVGWMKDERLYRSFENNEVKFILPSDYKNRINILVLHQNRYIRNAYGNNTKNFIKESFIPKFIDLVIWGHEHFSKPYLEESILNSFYNIQLGSSVRTSICPNEYGDKFIGLLEIKNQRFRFLKINLETVRPFEMKDIKLADYELNFKSESVLKEFLHEQTHAILEKIKNNFSHE,not soluble
8,MNMKTIEDVFIHLLSDTYSAEKQLTRALAKLARATSNEKLSQAFHAHLEETHGQIERIDQVVESESNLKIKRMKCVAMEGLIEEANEVIESTEKNEVRDAALIAAAQKVEHYEIASYGTLATLAEQLGYRKAAKLLKETLEEEKATDIKLTDLALNNVNKKAENKA,soluble
9,MSSTAVQPPPPVPPPPPSAVPSAGKGIHSKLYNGMIGAADKFVPAKLRPLWMHPAGPKTIFFWAPVFKWGLVAAGLSDLARPADTISVSGCAALAATGIIWSRYSLVIIPKNYSLFAVNLFVGITQVVQLARAYHYHQSQEKLKQEQQQPAVQNLEHHHHHH,not soluble
10,MSLSDGNITFAYSYPIKAFEKFLGYYDRENRIAFNPSISMRTDFSFCLAACRYRKNGKTDTVVLDGYADNKYYKKAKFALDKFRSEYSINGSFDFYIKRYRRYQKAKGLSESSAVAAAVSRALISNVFGDDAAKDDIFVSRYARLVSGSGTRAAHDGISMWLSYPGMDSRDCVAFKVGKSNENLNYGVFPKYSDVATDNAHSIAVNSVFYGTWVSEKFSNVKRLISDHFDINDLLKIGENDMLRLNSILMSGGLIIQTPDSLRILKEILKFKSKNEGFYFTADTGPSIAIFSFDRSLIDEFRENVNDEYIEGSYDFKGYNNEGHHHHHH,not soluble
11,MGSDKIHHHHHHMRHLKAFYVFHVTAESSNYSKAAEKLHITHGAVSKQIKLLESHLSQMLFYKQGRGMCLTQEGELLKQYTDIAFNALDNGIKKLTRESNKHLEVSCEPTLTMRWLMPRLASFFRLTGIDVRLSTAGGPVDLNETGLSLAIRRDDFDISPEYTAHNLVNEWVGPVFSPEYWRKSQNNLGDIVLLHSETRPSAWSDWSSRSKHTFYTNKSKSFEHFYFCLQAAVDGLGAAIGSYPLIVDDLKSGRLVAPFGFTQSGHKYVLLSHTERLGSNELEFLTWLEKTMSLCQPETP,not soluble
12,GPLGSETITVPTPIKQIFSDDAFAETIKDNLKKKSVTDAVTQNELNSIDQIIANNSDIKSVQGIQYLPNVTKLFLNGNKLTDIKPLANLKNLGWLFLDENKVKDLSSLKDLKKLKSLSLEHNGISDINGLVHLPQLESLYLGNNKITDITVLSRLTKLDTLSLEDNQISDIVPLAGLTKLQNLYLSKNHISDLRALAGLKNLDVLELFSQECLNKPINHQSNLVVPNTVKNTDGSLVTPEIISDDGDYEKPNVKWHLPEFTNEVSFIFYQPVTIGKAKARFHGRVTQPLKE,soluble
13,ETGGERQLSPEKSEIWGPGLKADVVLPARYFYIQAVDTSGNKFTSSPGEKVFQVKVSAPEEQFTRVGVQVLDRKDGSFIVRYRMYASYKNLKVEIKFQGQHVAKSPYILKG,soluble
14,MHNFIYITAPSLEEAERIAKRLLEKKLAACVNIFPIKSFFWWEGKIEAATEFAMIVKTRSEKFAEVRDEVKAMHSYTTPCICAIPIERGLKEFLDWIDETVE,soluble
15,MSLKTLNIYLMRHGKVDAAPGLHGQTDLKVKEAEQQRIAMAWKTKGYDVAGIISSPLSRCHDLAQILAEQQLLPMTTEDDLQEMDFGDFDGMPFDLLTEHWKKLDAFWQSPAHHSLPNAESLSTFSQRVSRAWSQIINDINDNLLIVTHGGVIRIILAHVLGVDWRNPQWYSTLAIGNASVTHITITIDDQIYASVRSIGVPLVEEGHHHHHH,soluble
16,MNKKSVGQPPEGLHETKSLASALPEKNAEQRPKYVQIVALPSEIKSRELPIAPDNVVYFNGPTHYLSALYPCTVVVDGNEYNSVEHYYQACKLYVLTGEQSAAQLKASETPIEVKKATKNILKEAKIPAKKISAWKDKDSIAVLKHVIYHKFNQNDELKVKLLDTGDKILIQTYIGDTYFAAGANAKYTSTWVDRHVNQSLKYPENVVVDNVQYLPLVANGKNVLGWILMQVRDELRMRSSA,soluble
17,SLRLKLSLTPKQDFSFDKINKHTIQGFIYSLLKDTEFGEMHNQPRFKFWCFSDIFPPNDFVKGEDKYLLISSPREEFINVLYERLDNLEEVNLNNFKFEVSELKKFDLKVKNKFITGSPIVLYKDKDRGEYIKFYDDDFDLMFFVQRLQDNAVKKYKAFYNEEPVLNGFIFDRISPRVRNGRVDVYVRIAKKGREFLVVGTTWKLLEKIKIRKEERKFYKFIMDCGLGEKNSLGFGFINPIK,not soluble
18,MGYRNLPPHLNPLAPLALDDPPGWLTSFKLRRLTADQCASLLAEANRRRLIASRPVADSEGSCPLRNVVRVANFGSVQLSSSFLASCPLALSSALYIEQQAKPLTRQLMASDLRQIDHLGSFACRNIYHRQQARRSEHATADALDVSGFRLADGRRVSVLQGWRSETSRPWLAALLSSSCHYFGNALGPEYNAAHANHFHFGMRGQGFCFLEHHHHHH,not soluble
19,MTLPPVGSTLYSKGTHNYKGLFKECATVGSTLYSKGTHNDADNVPVLRLVGSTLYSKGTHNSRLARPPTRLVGSTLYSKGTHNMILDWWLGRWNVQ,not soluble
20,MTINYQFGDVDAHGAMIRAQAGSLEAEHQAIISDVLTASDFWGGAGSAACQGFITQLGRNFQVIYEQANAHGQKVQAAGNNMAQTDSAVGSSWA,not soluble
21,GPGSMMRRVGDYEILDVVGEGAYSKVKRVRHIPTGCMFVAKIVPKTNQQVENDVRLEISILRRLKHKNIVQLIEILESTNNYYIILEPVMGGDLCDIIVGMDRPLPEQDVAALLIQLVAGVRACHRNGVAHRDLKPENLLLGTDGVLKISDFGLSRLHRESNFQASTNEYAHTLTGTLAYLAPEVFGGSYDAFRADIWSMGCIAYVLLTQNFPFGSTTDPHALEVRIRNGEVSVMPSSVSAEAKNLCKWLLSPRPEDRPTLDAVAQHDFFKRYLPAEYLRMTANRKSPIVHGANMNEFSSQVQEEAPSCSPSTATAKRKHQYVRSGSAARTSPSSSAVAGAATSSNRSSESGRDREDLVSHGTQGESDPGGYCGDV,soluble
22,EAEEDGDLQCLCVKTTSQVRPRHITSLEVIKAGPHCPTAQLIATLKNGRKICLDLQAPLYKKIIKKLLES,soluble
23,MHHHHHHSSGVDLGTENLYFQSMGQCSVLLFPGQGSQVVGMGRGLLNYPRVRELYAAARRVLGYDLLELSLHGPQETLDRTVHCQPAIFVASLAAVEKLHHLQPSVIENCVAAAGFSVGEFAALVFAGAMEFAEGLYAVKIRAEAMQEASEAVPSGMLSVLGQPQSKFNFACLEAREHCKSLGIENPVCEVSNYLFPDCRVISGHQEALRFLQKNSSKFHFRRTRMLPVSGAFHTRLMEPAVEPLTQALKAVDIKKPLVSVYSNVHGHRYRHPGHIHKLLAQQLVSPVKWEQTMHAIYERKKGRGFPQTFEVGPGRQLGAILKSCNMQAWKSYSAVDVL,soluble
24,MSLDWHTLLTRERLGKALYSADELGRSPFHKDHDRIIFSGAFRRLGRKTQVHPVSSNDHIHTRLTHSLEVSCVGRSLGMRVGETLRDNLPDWCAPSDLGMIVQSACLAHDIGNPPFGHSGEDAIRHWFQQAAGRGWLDDMSDDERADFLNFEGNAQGFRVLTQLEYHQFDGGTRLTYATLGTYLKYPWSARHADALGYKKHKFGSYQSELPLLEQIARKLGLPQLEHQRWARHPLVYLMEAADDICYALIDLEDGLEMELLQYAEVEALLLDLVGEDLPETYRQLGPRDSRRRKLAILRGKAIEHLTNAAAHAFVEQQQALLAGQLPGDLVEHMHGPAKRCVLQAKDMARNKIFQDKRKTLHEIGAYTTLEILLNTFCGAALEQHGGRTPSFKSRRVLDLIGNNAPDPHASLHSAFLRMIDFIAGMTDSYASEMAREMTGRSSPTEGHHHHHH,soluble
25,MKTLGEFIVEKQHEFSHATGELTALLSAIKLGAKIIHRDINKAGLVDILGASGAENVQGEVQQKLDLFANEKLKAALKARDIVAGIASEEEDEIVVFEGCEHAKYVVLMDPLDGSSNIDVNVSVGTIFSIYRRVTPVGTPVTEEDFLQPGNKQVAAGYVVYGSSTMLVYTTGCGVHAFTYDPSLGVFCLCQERMRFPEKGKTYSINEGNYIKFPNGVKKYIKFCQEEDKSTNRPYTSRYIGSLVADFHRNLLKGGIYLYPSTASHPDGKLRLLYECNPMAFLAEQAGGKASDGKERILDIIPETLHQRRSFFVGNDHMVEDVERFIREFPDA,soluble
